Consider 1 substance from patent US20190169635.

The test system of the data set is alpha-1 antitrypsin (AAT) in the serum of wild-type C57BL/6 mice.

As to neutrophil elastase, the “relative neutrophil elastase activity (colorimetric kinetics of substrate degradation) after incubation with serum” value was “serum from wild-type male and female C57BL/6 mice exhibited a high capacity to inhibit neutrophil elastase, serum from the three founders showed a reduced capacity to do so”.
